Consider four molecules from patent US20110318339A1 (FABRUS, published 2011).

Experiment [1] concerns the target T1, recombinant human DLL4 (Cat# 1506-D4/CF, R&D Systems) (human, UniProt Q9NR61 27-529).
T1 construct: Bought protein; also called hDLL4; h DLL4
Put plainly: ELISA, hDLL4 coated 0.5 ng/ul, Fab 25.00 nM. The method, then: (§1) The plate was blocked by adding 1% BSA in Tris-buffered Saline Tween (TBST) and incubating for 1 hour at room temperature followed by washing 2 times with 150 μl TBST. A Fab antibody was serially diluted in 1% BSA in PBS. A 50 μl aliquot of each serial dilution was added, in triplicate, to each well and the plate was incubated for 1 hour at room temperature followed by washing 2 times with TBST. 50 μl of either goat anti-human kappa HRP conjugated secondary antibody (Cat # A7164-1 mL, Sigma-Aldrich) or goat anti-human lambda HRP conjugated secondary antibody (Cat # L1645-1 ml, Sigma-Aldrich), diluted 1:1000 in 1% BSA in PBS, was added to each well and the plate was incubated for 30 minutes at room temperature followed by washing 3 times with 200 μl TBST. Finally, 50 μl TMB one-component reagent (Cat # TMBW-1000-01, BioFax) was added and allowed to develop for 2 minutes at room temperature. The reaction was immediately halted by the addition of 50 μl 0.5M H₂SO₄ and the absorbance at 450 nm was measured using an ELISA plate reader.

The target of experiment [2] is T1, recombinant human DLL4 (Cat# …). In words: ELISA, hDLL4 coated 0.5 ng/ul, Fab 6.25 nM. The protocol: as §1
For experiment [3] the target is unchanged. In words: ELISA, hDLL4 coated 0.5 ng/ul, Fab 50.00 nM. The protocol:
as §1

The target is the same in experiment [4]. In words: ELISA, hDLL4 coated 0.5 ng/ul, Fab 12.50 nM. The method, then: as §1
The target is the same in experiment [5]. Put plainly: ELISA, hDLL4 coated 0.5 ng/ul, Fab 0.78 nM. The protocol:
as §1

The target is the same in experiment [6]. Put plainly: ELISA, hDLL4 coated 0.5 ng/ul, Fab 3.13 nM. The protocol: as §1
Experiment [7] shares this target. In words: ELISA, hDLL4 coated 0.5 ng/ul, Fab 1.56 nM. The protocol: as §1
For experiment [8] the target is unchanged. Put plainly: ELISA, hDLL4 coated 0.5 ng/ul, Fab 100.00 nM. The protocol:
as §1

Experiment [9] concerns the target T2, full-length human DLL4 expressed on the surface of CHO cells (human, UniProt Q9NR61 26-685).
T2 construct: also called CHO-DLL4; DLL4-expressing CHO cells
Put plainly: flow cytometry competition, 250 nM biotinylated Notch-Fc as competitor, Fab 10 nM. The method, then: (§2) Streptavidin-PE was used as a detection molecule.
(§3) Fab was 5-fold serially diluted in 2% BSA/PBS from a starting concentration of 50 nM. […] PE-labeled streptavidin (Cat# 21627, Pierce-Thermo Scientific) was then added to a final dilution of 1:5 followed by incubation for 10 minutes at room temperature. The cells were then washed twice in 2% BSA/PBS and analyzed by flow cytometry on a BD FACSAria.

For experiment [10], the target named is T2, full-length human DLL4 expressed on the …. Put plainly: flow cytometry competition, 250 nM biotinylated Notch-Fc as competitor, Fab 2 nM. The protocol: as §2, §3
For experiment [11] the target is unchanged. Put plainly: flow cytometry competition, 250 nM biotinylated Notch-Fc as competitor, Fab 50 nM. The protocol:
as §2, §3

Experiment [12] deals with T1, recombinant human DLL4 (Cat# …). Put plainly: ELISA, hDLL4 coated 0.5 ng/ul, Fab 0.31 nM. The protocol: (§4) In this example, an ELISA binding assay was used to assess the dose-dependent binding of Fab antibodies to recombinant human DLL4 and recombinant mouse DLL4.
as §1

For experiment [13], the target named is T3, recombinant mouse DLL4 (Cat# 1389-D4-050/CF, R&D Systems) (mouse, UniProt Q9JI71 28-525).
T3 construct: Bought protein; also called mDLL4
T3 sequence (Q9JI71 28-525 limits assumed): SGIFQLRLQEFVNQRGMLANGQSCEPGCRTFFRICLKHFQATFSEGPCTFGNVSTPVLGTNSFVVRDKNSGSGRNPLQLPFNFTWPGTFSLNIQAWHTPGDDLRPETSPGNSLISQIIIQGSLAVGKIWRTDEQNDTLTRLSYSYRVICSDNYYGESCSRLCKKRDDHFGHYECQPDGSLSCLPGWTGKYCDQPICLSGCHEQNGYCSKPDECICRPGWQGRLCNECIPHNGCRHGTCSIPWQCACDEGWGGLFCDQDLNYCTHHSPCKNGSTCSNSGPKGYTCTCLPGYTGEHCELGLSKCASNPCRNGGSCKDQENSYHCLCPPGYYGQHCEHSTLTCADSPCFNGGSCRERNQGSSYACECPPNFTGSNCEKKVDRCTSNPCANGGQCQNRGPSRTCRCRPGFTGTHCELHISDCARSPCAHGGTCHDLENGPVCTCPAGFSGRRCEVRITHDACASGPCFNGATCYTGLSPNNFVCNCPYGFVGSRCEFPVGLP
In words: ELISA, mDLL4 coated 0.5 ng/ul, Fab 0.63 nM. The protocol:
as §1

Experiment [14] concerns the target T1, recombinant human DLL4 (Cat# …). Put plainly: ELISA, hDLL4 coated 0.5 ng/ul, Fab 10.00 nM. The protocol:
as §4, §1

The target in experiment [15] is T3, recombinant mouse DLL4 (Cat# …). Put plainly: ELISA, mDLL4 coated 0.5 ng/ul, Fab 0.16 nM. The method, then:
as §1

Experiment [16] has the same target. In words: ELISA, mDLL4 coated 0.5 ng/ul, Fab 1.25 nM. The method, then: as §4, §1
Experiment [17] shares this target. In words: ELISA, mDLL4 coated 0.5 ng/ul, Fab 5.00 nM. The protocol:
as §4, §1

Experiment [18] shares this target. In words: ELISA, mDLL4 coated 0.5 ng/ul, Fab 10.00 nM. The method, then: as §1
Experiment [19] has the same target. Put plainly: ELISA, mDLL4 coated 0.5 ng/ul, Fab 0.08 nM. The protocol: as §1
Experiment [20] deals with T1, recombinant human DLL4 (Cat# …). In words: ELISA, hDLL4 coated 0.5 ng/ul, Fab 0.63 nM. The protocol:
as §1

Experiment [21] has the same target. Put plainly: ELISA, hDLL4 coated 0.5 ng/ul, Fab 5.00 nM. The protocol: as §4, §1
For experiment [22] the target is unchanged. In words: ELISA, hDLL4 coated 0.5 ng/ul, Fab 0.16 nM. The method, then:
as §4, §1

The target is the same in experiment [23]. Put plainly: ELISA, hDLL4 coated 0.5 ng/ul, Fab 1.25 nM. The method, then:
as §4, §1

Experiment [24] has as its target T3, recombinant mouse DLL4 (Cat# …). In words: ELISA, mDLL4 coated 0.5 ng/ul, Fab 2.50 nM. The protocol:
as §4, §1

Experiment [25] deals with T1, recombinant human DLL4 (Cat# …). Put plainly: ELISA, hDLL4 coated 0.5 ng/ul, Fab 0.08 nM. The method, then: as §1
In experiment [26] the target is T3, recombinant mouse DLL4 (Cat# …). Put plainly: ELISA, mDLL4 coated 0.5 ng/ul, Fab 0.31 nM. The method, then: as §1
Experiment [27] has as its target T1, recombinant human DLL4 (Cat# …). In words: ELISA, hDLL4 coated 0.5 ng/ul, Fab 2.50 nM. The method, then:
as §4, §1

B1: Fab VH5-51_IGHD5-18*01>3_IGHJ4*01 G100K/G104T G24T/S28R/G35V (H:KT TRV) & V3-4_IGLJ1*01 M94R/S96M (L:RM) (Fab, V domains shown)
VH: EVQLVQSGAEVKKPGESLKISCKTSGYRFTSYWIVWVRQMPGKGLEWMGIIYPGDSDTRYSPSFQGQVTISADKSISTAYLQWSSLKASDTAMYYCARRKYSYTYDYFDYWGQGTLVTVSS
VL: QTVVTQEPSFSVSPGGTVTLTCGLSSGSVSTSYYPSWYQQTPGQAPRTLIYSTNTRSSGVPDRFSGSILGNKAALTITGAQADDESDYYCVLYRGMGISYVFGTGTKVTVL
notes: Tested as Fab from E. coli (Plasmid A: CH1, His6, Flag; Plasmid E: CL lambda); also called H:KT TRV & L:RM; KT TRV / RM
B1: the “ELISA absorbance at 450 nm” value in [1] turned out to be 0.421 A450; in experiment [2], 0.229 A450; in experiment [3] it was 0.661 A450; in [4], 0.294 A450; in experiment [5] it was 0.145 A450; in [6] it was 0.167 A450. Besides, the “ELISA absorbance at 450 nm” value stood at 0.148 A450 in experiment [7] and 1.07 A450 in experiment [8].

B2: Fab VH5-51_IGHD5-18*01>3_IGHJ4*01 G100K/G104T S28R (H:KT S28R) & V3-4_IGLJ1*01 (Fab, V domains shown)
VH: EVQLVQSGAEVKKPGESLKISCKGSGYRFTSYWIGWVRQMPGKGLEWMGIIYPGDSDTRYSPSFQGQVTISADKSISTAYLQWSSLKASDTAMYYCARRKYSYTYDYFDYWGQGTLVTVSS
VL: QTVVTQEPSFSVSPGGTVTLTCGLSSGSVSTSYYPSWYQQTPGQAPRTLIYSTNTRSSGVPDRFSGSILGNKAALTITGAQADDESDYYCVLYMGSGISYVFGTGTKVTVL
notes: Tested as Fab from E. coli (Plasmid A: CH1, His6, Flag); Plasmid E: CL lambda; also called H:KT S28R & L:wt
Regarding B2, the “ELISA absorbance at 450 nm” value was 0.333 A450 in experiment [1]; 0.203 A450 in [2]; 0.524 A450 in experiment [3]; 0.226 A450 in experiment [4]; 0.138 A450 in experiment [5]; 0.164 A450 in [6]. The “ELISA absorbance at 450 nm” value is 0.148 A450 in [7] and 0.67 A450 in experiment [8].

B3: Fab VH5-51_IGHD5-18*01>3_IGHJ4*01 G100K/G104T G24T/S28R/G35V (H:KT TRV) & V3-4_IGLJ1*01 V91L/S96P S52G (L:LP S52G) (Fab, V domains shown)
VH: EVQLVQSGAEVKKPGESLKISCKTSGYRFTSYWIVWVRQMPGKGLEWMGIIYPGDSDTRYSPSFQGQVTISADKSISTAYLQWSSLKASDTAMYYCARRKYSYTYDYFDYWGQGTLVTVSS
VL: QTVVTQEPSFSVSPGGTVTLTCGLSSGSVSTSYYPSWYQQTPGQAPRTLIYGTNTRSSGVPDRFSGSILGNKAALTITGAQADDESDYYCLLYMGPGISYVFGTGTKVTVL
notes: Tested as Fab from E. coli (Plasmid A: CH1, His6, Flag; Plasmid E: CL lambda); also called H:KT TRV & L:LP S52G
For the molecule B3, the figures for the “signal of Notch-Fc bound to CHO-DLL4 (streptavidin-PE)” value in experiment [9], in experiment [10] and in experiment [11] were 190, 250 and 105, respectively.

B4: Fab VH1-46_IGHD6-6*01_IGHJ1*01 S102A/S103P/S104F/H111F I51V/N52L/S54T/G56H (H:APFF VLTH) & L6_IGKJ1*01 S28N/S30D/S31H S52L/A55S (L:NDH LS) (Fab, V domains shown)
VH: QVQLVQSGAEVKKPGASVKVSCKASGYTFTSYYMHWVRQAPGQGLEWMGIVLPTGHSTSYAQKFQGRVTMTRDTSTSTVYMELSSLRSEDTAVYYCAREEYAPFSAEYFQFWGQGTLVTVSS
VL: EIVLTQSPATLSLSPGERATLSCRASQNVDHYLAWYQQKPGQAPRLLIYDALNRSTGIPARFSGSGSGTDFTLTISSLEPEDFAVYYCQQRSNWPPWTFGQGTKVEIKR
notes: Tested as Fab from E. coli (Plasmid A: CH1, His6, Flag; Plasmid C: CL kappa); also called H:APFF VLTH & L:NDH LS; APFF VLTH / NDH LS
For B4, the “ELISA absorbance at 450 nm” value in [12] came to 0.85 A450; in [13], 0.404 A450; in experiment [14], 2.25 A450; in [15] it was 0.142 A450; in experiment [16], 0.604 A450; in experiment [17], 1.28 A450. Further, the “ELISA absorbance at 450 nm” value in [18] worked out at 1.55 A450; in experiment [19], 0.078 A450; in experiment [20], 1.4 A450; in [21], 2.06 A450; in experiment [22] it was 0.593 A450; in [23] it was 1.65 A450. The “ELISA absorbance at 450 nm” value in experiment [24] came out at 0.983 A450; in [25] it was 0.259 A450; in experiment [26] it was 0.205 A450; in experiment [27], 1.96 A450. The “signal of Notch-Fc bound to CHO-DLL4 (streptavidin-PE)” value is 30 in experiment [9], 117 in [10] and 30 in experiment [11].
